Data taken from PMC3193378 (European Journal of Immunology, 2011).
One block for each binder: values may come before it.

Experiments:
[1] = molecular target: T1, soluble CD14 protein (sCD14, aa 1-352) (human, UniProt P08571 20-352); test: pull-down
T1 sequence (looked up): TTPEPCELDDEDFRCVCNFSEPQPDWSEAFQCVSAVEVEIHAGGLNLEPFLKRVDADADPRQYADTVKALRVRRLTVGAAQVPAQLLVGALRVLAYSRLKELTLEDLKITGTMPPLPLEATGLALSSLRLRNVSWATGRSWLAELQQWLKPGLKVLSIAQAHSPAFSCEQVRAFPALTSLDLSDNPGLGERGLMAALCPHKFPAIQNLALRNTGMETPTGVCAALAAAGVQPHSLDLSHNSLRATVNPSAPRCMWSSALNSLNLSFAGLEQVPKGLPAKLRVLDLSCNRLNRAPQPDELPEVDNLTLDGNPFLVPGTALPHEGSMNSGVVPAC

[2] = molecular target: T1, soluble CD14 protein (sCD14, aa 1-352); test: ELISA

binding result [1]: binds
B1: GST-HMGB1 (natural protein, human, UniProt P09429 1-215, looked up)
chain: MGKGDPKKPRGKMSSYAFFVQTCREEHKKKHPDASVNFSEFSKKCSERWKTMSAKEKGKFEDMAKADKARYEREMKTYIPPKGETKKKFKDPNAPKRPPSAFFLFCSEYRPKIKGEHPGLSIGDVAKKLGEMWNNTAADDKQPYEKKAAKLKEKYEKDIAAYRAKGKPDAAKKGVVKAEKSKKKKEEEEDEEDEEDEEEEEDEEDEDEEEDDDDE

binding result [2]: binds
B2: 6-His-tagged HMGB1 B box protein (aa 88-162) (domain or fragment, human, UniProt P09429 88-162, looked up)
chain: KFKDPNAPKRPPSAFFLFCSEYRPKIKGEHPGLSIGDVAKKLGEMWNNTAADDKQPYEKKAAKLKEKYEKDIAAY
